Earlier results in patent US11819552B2, “Antibody-drug conjugates targeting uPARAP” (RIGSHOSPITALET, priority 2016, dated 2023).

Legend:
Details in all cases: Jürgensen et al., 2014; cited from earlier work
uPARAP [1] = molecular target: T1, uPARAP (Homo sapiens, UniProt Q9UBG0)
T1 sequence (Q9UBG0 31-1479): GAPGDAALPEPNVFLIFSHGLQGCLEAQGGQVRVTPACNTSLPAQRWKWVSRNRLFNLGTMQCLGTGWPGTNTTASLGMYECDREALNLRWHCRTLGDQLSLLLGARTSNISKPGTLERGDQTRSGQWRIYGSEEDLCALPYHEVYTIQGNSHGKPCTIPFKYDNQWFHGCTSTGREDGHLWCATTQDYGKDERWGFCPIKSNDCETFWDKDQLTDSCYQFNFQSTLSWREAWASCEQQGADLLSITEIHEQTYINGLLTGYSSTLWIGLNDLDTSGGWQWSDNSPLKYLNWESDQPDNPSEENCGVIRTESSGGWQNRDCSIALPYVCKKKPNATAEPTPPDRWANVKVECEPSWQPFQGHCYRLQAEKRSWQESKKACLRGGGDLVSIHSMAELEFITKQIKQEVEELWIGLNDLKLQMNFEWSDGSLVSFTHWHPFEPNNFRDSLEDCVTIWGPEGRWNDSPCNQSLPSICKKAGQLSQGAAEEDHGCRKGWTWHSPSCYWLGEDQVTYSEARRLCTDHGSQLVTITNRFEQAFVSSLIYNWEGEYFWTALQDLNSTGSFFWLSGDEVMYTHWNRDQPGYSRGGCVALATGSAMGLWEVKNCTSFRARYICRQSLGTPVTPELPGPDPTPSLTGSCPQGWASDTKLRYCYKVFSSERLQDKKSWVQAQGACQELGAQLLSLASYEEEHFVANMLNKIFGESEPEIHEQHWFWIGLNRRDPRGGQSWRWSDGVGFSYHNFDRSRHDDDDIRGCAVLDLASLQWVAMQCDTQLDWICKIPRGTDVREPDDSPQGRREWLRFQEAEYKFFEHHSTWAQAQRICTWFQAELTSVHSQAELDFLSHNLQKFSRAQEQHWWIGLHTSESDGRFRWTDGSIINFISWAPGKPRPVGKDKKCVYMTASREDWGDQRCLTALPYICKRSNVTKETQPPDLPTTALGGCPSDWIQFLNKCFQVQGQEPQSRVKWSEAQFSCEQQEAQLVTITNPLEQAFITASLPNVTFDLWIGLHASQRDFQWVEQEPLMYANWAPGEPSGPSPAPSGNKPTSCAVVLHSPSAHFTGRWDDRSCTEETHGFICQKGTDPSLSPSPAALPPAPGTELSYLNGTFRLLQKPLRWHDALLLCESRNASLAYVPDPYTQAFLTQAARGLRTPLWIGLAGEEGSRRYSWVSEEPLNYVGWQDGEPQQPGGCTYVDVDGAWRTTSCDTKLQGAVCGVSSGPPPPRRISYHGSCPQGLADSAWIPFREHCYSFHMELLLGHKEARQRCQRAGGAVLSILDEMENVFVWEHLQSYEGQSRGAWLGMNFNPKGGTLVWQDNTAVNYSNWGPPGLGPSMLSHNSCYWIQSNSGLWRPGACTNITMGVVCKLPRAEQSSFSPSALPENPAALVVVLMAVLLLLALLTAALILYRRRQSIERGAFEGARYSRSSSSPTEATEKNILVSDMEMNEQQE

uPARAP [2] = system: uPARAP
[3] = system: other members of the mannose receptor family

B1: mAb 5f4: mouse monoclonal IgG1K anti-uPARAP antibody, epitope in the FN-II domain (antibody, V domains shown)
VL: DIVMTQSQKFMSTSLGARVSITCKASQNVGSNVVWYQQKLGQSPKALIYSASSRFSGVPDRFTGSGSGTDFTLTISNVQSEDLAEYFCQQYNTYPLAFGAGTKLELK
VH: DVQLQESGPGLVKPSQSLSVTCTVTGYSITNAYYWNWIRHFPGNKLEWLGYIHSSGDTNYNPSLKSRISITRDTSKNQFFLQLNSVTTEDTATYYCARSPYYSNYFPYWGQGTLVTVSA
For B1, the “Binding to wildtype uPARAP” value (uPARAP [1]) is listed as “capable of binding”, the “Binding to uPARAP with FN-II domain swapped with that of other family members” value (uPARAP [2]) is listed as “not capable of binding” and the “Binding to artificial family members with FN-II domain switched with that of uPARAP” value [3] is listed as “capable of binding”. The “Binding to other mannose receptor family members in wildtype form” value [3] was “not capable of binding”.
